This is an account of results in patent US10428140B2, “Anti-EphA4 antibody” (EISAI R&D MANAGEMENT CO., LTD., priority 2015, dated 2019).

Where a chain is given by its changes, count along the chain named. Several values for one entry are separate records, joined by “and”; a condition that tells them apart may be missing. Equal entries are not always repeated.

The labels stand for the following.
T1: human EphA1 (Homo sapiens, UniProt P21709)
T1 construct: a protein of the extracellular region of each human Eph receptor fused with the SEAP protein and the His tag; made in house; host or cells: Expi293F cells (culture supernatant)
T1 sequence (P21709 26-547 limits assumed): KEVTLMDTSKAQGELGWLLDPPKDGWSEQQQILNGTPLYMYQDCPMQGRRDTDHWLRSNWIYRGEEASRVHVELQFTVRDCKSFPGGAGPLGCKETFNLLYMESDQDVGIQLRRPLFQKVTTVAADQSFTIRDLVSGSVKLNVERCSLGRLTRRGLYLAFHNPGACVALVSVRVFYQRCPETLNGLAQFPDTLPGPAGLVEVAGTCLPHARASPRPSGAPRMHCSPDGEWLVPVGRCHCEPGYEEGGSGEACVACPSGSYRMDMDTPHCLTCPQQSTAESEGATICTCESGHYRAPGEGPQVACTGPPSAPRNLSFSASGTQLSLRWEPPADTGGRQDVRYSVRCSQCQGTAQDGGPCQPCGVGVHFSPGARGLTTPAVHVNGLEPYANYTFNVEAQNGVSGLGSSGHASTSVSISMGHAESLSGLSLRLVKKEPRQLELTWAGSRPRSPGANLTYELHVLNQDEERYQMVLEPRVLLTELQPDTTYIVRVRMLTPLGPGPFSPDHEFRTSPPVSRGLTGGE

B1: 152 (antibody, V domains shown)
VH: QVQLVQSGSELKKPGASVKVSCKASGYTFTDYSMHWVRQAPGQGLEWMGWINTETGEPTYAQGFTGRFVFSLDTSVSTAYLQISSLKAEDTAVYYCARIPLYYYGSRYWYFDVWGQGTTVTVSS
VL: DIQMTQSPSSLSASVGDRVTITCRASENIYRNLAWYQQKPGKAPKLLLYAATNLADGVPSRFSGSGSGTDYTLTISSLQSEDFATYYCQHFWGTPWTFGQGTKVEIK
modifications: synthetic humanized antibody heavy chain variable region sequence; synthetic humanized antibody light chain variable region sequence
B2: 133 (antibody, V domains shown)
VH: B1 VH
VL: EIVMTQSPATLSVSPGERATLSCRASENIYRNLAWYQQKPGQSPRLLIYAATNLADGIPARFSGSGSGTEYTLTISSLQSEDFAVYYCQHFWGTPWTFGQGTKVEIK
modifications: synthetic humanized antibody heavy chain variable region sequence; synthetic humanized antibody light chain variable region sequence
B3: 153 (antibody, V domains shown)
VH: B1 VH with E46K
VL: B1 VL
modifications: synthetic humanized antibody heavy chain variable region sequence; synthetic humanized antibody light chain variable region sequence
B4: 159 (antibody, V domains shown)
VH: B1 VH with E46K, Q62D, G63D, T65K
VL: B1 VL with K45Q, S80P
modifications: synthetic humanized antibody heavy chain variable region sequence; synthetic humanized antibody light chain variable region sequence
B5: 155 (antibody, V domains shown)
VH: B1 VH with V2I, E46K, Q62D, G63D, T65K
VL: B1 VL
modifications: synthetic humanized antibody heavy chain variable region sequence; synthetic humanized antibody light chain variable region sequence
B6: 157 (antibody, V domains shown)
VH: B1 VH
VL: B1 VL with K45Q, S80P
modifications: synthetic humanized antibody heavy chain variable region sequence; synthetic humanized antibody light chain variable region sequence
B7: 145 (antibody, V domains shown)
VH: B1 VH with E46K, Q62D, G63D, T65K
VL: B1 VL
modifications: synthetic humanized antibody heavy chain variable region sequence; synthetic humanized antibody light chain variable region sequence
B8: 160 (antibody, V domains shown)
VH: B1 VH with V2I, E46K, Q62D, G63D, T65K
VL: B1 VL with K45Q, S80P
modifications: synthetic humanized antibody heavy chain variable region sequence; synthetic humanized antibody light chain variable region sequence
B9: 158 (antibody, V domains shown)
VH: B1 VH with E46K
VL: B1 VL with K45Q, S80P
modifications: synthetic humanized antibody heavy chain variable region sequence; synthetic humanized antibody light chain variable region sequence
B10: 151 (antibody, V domains shown)
VH: B1 VH with V2I, E46K
VL: B1 VL
modifications: synthetic humanized antibody heavy chain variable region sequence; synthetic humanized antibody light chain variable region sequence
B11: 154 (antibody, V domains shown)
VH: B1 VH with Q62D, G63D, T65K
VL: B1 VL
modifications: synthetic humanized antibody heavy chain variable region sequence; synthetic humanized antibody light chain variable region sequence
B12: 144 (antibody, V domains shown)
VH: B1 VH with Q62D, G63D, T65K
VL: B1 VL with K45Q, S80P
modifications: synthetic humanized antibody heavy chain variable region sequence; synthetic humanized antibody light chain variable region sequence

A word on the Kd: it is the equilibrium constant for the complex coming apart.

The target of the first assay is T2, human EphA4 (Homo sapiens, UniProt P54764).
T2 construct: made in house; not restated for the human SEAP-His protein
T2 sequence (P54764 20-547): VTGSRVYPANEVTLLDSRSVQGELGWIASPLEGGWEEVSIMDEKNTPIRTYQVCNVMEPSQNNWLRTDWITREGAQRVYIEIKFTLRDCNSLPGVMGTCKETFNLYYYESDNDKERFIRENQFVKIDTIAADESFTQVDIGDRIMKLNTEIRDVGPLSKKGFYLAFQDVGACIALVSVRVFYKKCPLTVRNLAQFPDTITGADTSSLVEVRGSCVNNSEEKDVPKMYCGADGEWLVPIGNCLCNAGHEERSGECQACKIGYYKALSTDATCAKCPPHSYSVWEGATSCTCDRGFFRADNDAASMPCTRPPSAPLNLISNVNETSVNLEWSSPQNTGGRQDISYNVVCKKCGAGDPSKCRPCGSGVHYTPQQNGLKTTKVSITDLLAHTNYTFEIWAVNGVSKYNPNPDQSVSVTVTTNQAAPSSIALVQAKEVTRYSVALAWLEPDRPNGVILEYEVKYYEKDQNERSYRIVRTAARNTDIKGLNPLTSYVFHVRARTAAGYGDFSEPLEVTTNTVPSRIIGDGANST
As to the kind of experiment: Affinity of humanized antibodies by SPR (Biacore T200). The class given is binding. The settings on record: human EphA4 extracellular region-SEAP-His; 1:1 binding model. The essentials:
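Humanized antibodies captured on protein A chip (antibody A via immobilized rat anti-mouse IgG1) at about 30 to 60 RU in HBS-EP; human EphA4 extracellular region-SEAP-His injected single-cycle at 0.6 to 50 nM, 120 s association, 900 s dissociation. KD = kd/ka from 1:1 binding fits.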
In turn, B1 gave a ka of 400000 M⁻¹ s⁻¹ and a kd of 0.00082 s⁻¹.
B2 came in with a ka of 300000 M⁻¹ s⁻¹ and a kd of 0.00032 s⁻¹.
The molecule B3 registered a ka of 290000 M⁻¹ s⁻¹ and a kd of 0.0006 s⁻¹.
On to B4, for which the ka came out at 310000 M⁻¹ s⁻¹ and the kd was 0.00061 s⁻¹.
On to B5, for which the ka worked out at 330000 M⁻¹ s⁻¹ and the kd worked out at 0.00064 s⁻¹.
Turning to B6, the ka was 350000 M⁻¹ s⁻¹ and the kd was determined as 0.00068 s⁻¹.
Turning to B7, the ka came out at 330000 M⁻¹ s⁻¹ and the kd turned out to be 0.00065 s⁻¹.
In turn, B8 yielded a ka of 320000 M⁻¹ s⁻¹ and a kd of 0.00061 s⁻¹.
On to B9, for which the ka is 310000 M⁻¹ s⁻¹; the kd was 0.00061 s⁻¹ and 0.00056 s⁻¹.
For the molecule B10, the ka turned out to be 320000 M⁻¹ s⁻¹ and the kd was 0.00053 s⁻¹.
Consider B11, for which the ka stood at 390000 M⁻¹ s⁻¹ and the kd was determined as 0.00065 s⁻¹.
B12: the ka worked out at 400000 M⁻¹ s⁻¹ and the kd came to 0.00078 s⁻¹.

Still in this assay, the particulars now being: human EphA4 extracellular region-SEAP-His; KD=kd/ka.
On to B1, for which the dissociation constant Kd was found to be 2 nM.
Same read-out and setting: with B2 the figure was 1.1 nM.
On the same count and under the same terms, with B3 the figure was 2.1 nM; with B4, 2 nM; with B5, 1.9 nM.
B6 registered a dissociation constant (Kd) of 2 nM.
In turn, B7 had a Kd of 2 nM.
B8: binding was put at a Kd of 1.9 nM.
For the molecule B9, the Kd was 1.9 nM and 1.6 nM.
The molecule B10 gave a Kd of 1.7 nM.
In turn, B11 yielded a Kd of 2.2 nM.
B12 showed an equilibrium dissociation constant (Kd) of 2 nM.

In a further assay the target is T2, human EphA4. The assay is described as follows: Selectivity ELISA of humanized antibodies for human Eph receptor. The class given is binding. Conditions: coated protein 1 nM; reference set to 100%. The essentials: (§1)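 Read-out is A450 after TMB development stopped with 1N H2SO4. Plates bore anti-His-captured human Eph extracellular region-SEAP-His proteins at 1 nM final, made in Expi293F cells. Humanized antibody binding ran 1 h at room temperature before HRP-labeled anti-IgG detection.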
For B1, the “hEphA4-SEAP-: absorbance at 450 nm, percentage with respect to hEphA4-SEAP-His as 100%” value stood at 100%.
Same read-out and setting: with B2 the figure was 100%; with B3, 100%; with B4, 100%.
For B5, the “hEphA4-SEAP-: absorbance at 450 nm, percentage with respect to hEphA4-SEAP-His as 100%” value is reported as 100%.
As for B6, the “hEphA4-SEAP-: absorbance at 450 nm, percentage with respect to hEphA4-SEAP-His as 100%” value is on record as 100%.
Consider B7, for which the “hEphA4-SEAP-: absorbance at 450 nm, percentage with respect to hEphA4-SEAP-His as 100%” value turned out to be 100%.
Take B8: the “hEphA4-SEAP-: absorbance at 450 nm, percentage with respect to hEphA4-SEAP-His as 100%” value came to 100%.
On to B9, for which the “hEphA4-SEAP-: absorbance at 450 nm, percentage with respect to hEphA4-SEAP-His as 100%” value was found to be 100%.
For the molecule B10, the “hEphA4-SEAP-: absorbance at 450 nm, percentage with respect to hEphA4-SEAP-His as 100%” value was 100%.
Consider B11, for which the “hEphA4-SEAP-: absorbance at 450 nm, percentage with respect to hEphA4-SEAP-His as 100%” value was determined as 100%.
As for B12, the “hEphA4-SEAP-: absorbance at 450 nm, percentage with respect to hEphA4-SEAP-His as 100%” value worked out at 100%.

For another assay, the target named is T1, human EphA1. The assay is described as above. The class given is binding. Conditions: coated protein 1 nM. The procedure, abridged:
as §1
Regarding B1, the “hEphA1-SEAP-: absorbance at 450 nm, percentage with respect to hEphA4-SEAP-His as 100%” value was 5.8%.
On the same count and under the same terms, with B2 the figure was 4.9%; with B3, 6.3%; with B4, 5.4%.
B5: the “hEphA1-SEAP-: absorbance at 450 nm, percentage with respect to hEphA4-SEAP-His as 100%” value worked out at 5.5%.
On to B6, for which the “hEphA1-SEAP-: absorbance at 450 nm, percentage with respect to hEphA4-SEAP-His as 100%” value was determined as 6.2%.
As for B7, the “hEphA1-SEAP-: absorbance at 450 nm, percentage with respect to hEphA4-SEAP-His as 100%” value worked out at 6.7%.
As for B8, the “hEphA1-SEAP-: absorbance at 450 nm, percentage with respect to hEphA4-SEAP-His as 100%” value was 6.5%.
B9: the “hEphA1-SEAP-: absorbance at 450 nm, percentage with respect to hEphA4-SEAP-His as 100%” value came out at 6.5%.
B10: the “hEphA1-SEAP-: absorbance at 450 nm, percentage with respect to hEphA4-SEAP-His as 100%” value is 7.1%.
Regarding B11, the “hEphA1-SEAP-: absorbance at 450 nm, percentage with respect to hEphA4-SEAP-His as 100%” value is reported as 6.4%.
For B12, the “hEphA1-SEAP-: absorbance at 450 nm, percentage with respect to hEphA4-SEAP-His as 100%” value was 5.6%.
